One experiment concerns the target T1, c-Met-Fc control protein (UniProt P08581 25-932, limits assumed).
T1 construct: Bought control protein; also called Met-Fc (R&D); c-Met-Fe; not shown: Fc part of the bought fusion protein; not described
Nature of the experiment: phage ELISA on coated MET-Fc, anti-M13-HRP detection. As for the experimental part: (§1) The selected phages were further examined by ELISA screening. The 96-well plates were coated with […] of VEGFR2-Fc, Met-Fc (R&D), or BSA (Sigma) protein in 0.1 M sodium bicarbonate overnight at 4° C. After blocking with 1% BSA in PBS (w/v) for 2 hr at room temperature, 70-randomly selected phage clones were added to the plates at a 1:2 dilution in 1% BSA, and incubated for 1 hr at room temperature. Following washes with PBST, the plates were incubated with a 1:2000 dilution of horseradish peroxidase (HRP)-conjugated mouse anti-M13 phage antibody (GE) for 1 hr. After washing with PBST, the colorimetric reaction was developed with the peroxidase substrate ortho-phenylenediamine (OPD; Sigma) plus H₂O₂ for 15 min, and then terminated by the addition of 3 N HCl. The absorbance at 490 nm was determined using a microplate reader (SpectraMax, Molecular Devices). Plasmid DNA of positive clones were isolated and sequenced using the pCANTAB5 sequencing primer set.
(§2) After four rounds of affinity selection (biopanning), the titer of bound phage increased by as much as 3,455-fold (FIG. 1A).

Experiment [1] has as its target T2, VEGFR2 on the cell surface of human umbilical vein endothelial cells (HUVEC) (human, UniProt P35968 20-1356).
T2 construct: Endogenous receptor of human cells; also called cell-surface VEGFR2; cellular VEGFR2
Description: flow cytometry on HUVECs, 1x10^10 cfu phage, anti-M13 and PE-labelled secondary antibody. As for the experimental part:
About 1×10⁴ HUVEC were incubated with the selected anti-VEGFR2 phage clones at 4° C. for 1 hour in FACS buffer (PBS containing 1% fetal bovine serum). After the cells were washed with FACS buffer, they were first incubated with mouse anti-M13 phage Ab for 1 hr at 4° C., and then with R-phycoerythrin-conjugated goat anti-mouse IgG (Jackson Immuno Research) for 30 min at 4° C. Flow cytometry was performed with a FACSCantoII (BD), and emission fluorescence intensity was measured with FACS Diva software (BD) to quantitatively compare binding affinities.
as §2

Experiment [2] addresses T3, VEGFR2-Fc recombinant protein (R&D Systems) (human, UniProt P35968 20-764).
T3 construct: Bought protein; also called VEGFR2 recombinant protein; immobilized VEGFR2; not shown: Fc part of the bought fusion protein; not described
Nature of the experiment: phage ELISA, 1x10^9 cfu phage on coated VEGFR2-Fc, anti-M13-HRP detection. As for the experimental part:
as §1, §2

The target in experiment [3] is T3, VEGFR2-Fc recombinant protein (R&D …). Description: solid-phase competitive ELISA: antibody against 4 nM VEGF-A on immobilized VEGFR2.
For experiment [4] the target is unchanged. Nature of the experiment: SPR, BIACORE T100, VEGFR2-Fc coupled to CM5 chip, IgG as analyte. Here is the method: (§3) The affinity and kinetics of anti-VEGFR2 antibodies were measured by surface plasmon resonance in a BIACORE T100™ (GE healthcare). VEGFR2-Fc protein was coupled to an EDC- and NHS-activated CM5 sensor chip in a BIACORE flow cell, and then blocked with ethanolamine according to the manufacturer's directions. Associated and dissociated phases were monitored under continuous flow of 30 μl/min, using antibody concentrations ranging from 0.1 to 100 nM for 5 min. Regeneration was performed by injection of regenerate buffer (0.2 M NaCl, 10 mM glycine, pH 2.7). To determine binding constants, the sensorgrams were fit globally to a sample 1:1 interaction model using BIAevaluation software (GE healthcare).
(§4) We analyzed the affinity of both human antibodies to VEGFR2 using a BIACORE T100™.

Experiment [5] shares this target. Nature of the experiment: surface plasmon resonance, BIACORE T100, VEGFR2-Fc coupled to a CM5 chip, purified IgG as analyte. Here is the method:
as §3, §4

Experiment [6] deals with T4, VEGFR2 on tumor vascular endothelium (frozen sections of human lung cancer specimens) (human, UniProt P35968).
T4 construct: endogenous, on CD31-positive tumor vascular endothelium in frozen tissue sections; also called human tumor vasculature
Description: immunofluorescence on frozen sections of human lung cancer, scFv detected by anti-E tag and rhodamine secondary antibody, CD31 co-staining.

Another experiment addresses T5, VEGFR2(4-7) (human, UniProt P35968 321-813).
T5 construct: also called domains 4-7, Phe321 to Leu813
Description: immunofluorescent staining of transfected 293T cells.

For a further experiment, the target named is T6, VEGFR2(M1) (human, UniProt P35968 20-813).
T6 construct: Expressed on 293T cells; single substitutions derived from the printed replacement of the six-residue stretch; also called VEGFR2-M1 mutant protein
T6 chain: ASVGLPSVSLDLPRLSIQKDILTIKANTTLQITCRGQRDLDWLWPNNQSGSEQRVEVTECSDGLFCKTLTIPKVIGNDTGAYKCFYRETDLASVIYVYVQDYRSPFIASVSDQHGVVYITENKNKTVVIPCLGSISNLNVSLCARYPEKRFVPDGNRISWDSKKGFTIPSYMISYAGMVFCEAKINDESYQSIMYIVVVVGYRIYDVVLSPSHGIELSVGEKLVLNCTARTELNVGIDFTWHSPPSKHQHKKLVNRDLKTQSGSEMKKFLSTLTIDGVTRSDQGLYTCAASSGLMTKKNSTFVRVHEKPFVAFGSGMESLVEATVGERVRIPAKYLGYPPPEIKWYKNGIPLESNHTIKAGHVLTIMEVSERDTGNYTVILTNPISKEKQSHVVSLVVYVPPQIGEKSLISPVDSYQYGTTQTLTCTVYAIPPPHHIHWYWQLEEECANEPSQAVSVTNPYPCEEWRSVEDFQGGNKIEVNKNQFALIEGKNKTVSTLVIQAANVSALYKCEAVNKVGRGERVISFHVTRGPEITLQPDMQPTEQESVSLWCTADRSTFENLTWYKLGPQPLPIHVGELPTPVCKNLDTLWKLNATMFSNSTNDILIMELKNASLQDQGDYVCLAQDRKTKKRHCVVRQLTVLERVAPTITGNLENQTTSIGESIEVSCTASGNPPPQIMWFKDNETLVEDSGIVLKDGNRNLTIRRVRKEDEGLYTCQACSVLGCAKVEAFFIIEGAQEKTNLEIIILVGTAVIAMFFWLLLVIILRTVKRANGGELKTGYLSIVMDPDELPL
The description is as above.

The target of another experiment is T7, VEGFR2(2-7) (human, UniProt P35968 111-813).
T7 construct: also called domains 2-7, Ala111 to Leu813
Described as above.

The target of a further experiment is T8, VEGFR2(del2-3) (human, UniProt P35968 20-813).
T8 construct: Expressed on 293T cells; also called VEGFR2 with domains 2 and 3 deleted
The experiment is described as above.

A further experiment has as its target T9, VEGFR2(del3) (human, UniProt P35968 20-813).
T9 construct: Expressed on 293T cells; also called VEGFR2 with domain 3 deleted
The experiment is described as above.

The next experiment has as its target T10, VEGFR2(1-7) (human, UniProt P35968 20-813).
T10 construct: Expressed on 293T cells; also called full-length extracellular region of VEGFR2, domains 1-7, Met1 to Leu813
Described as above.

The target of another experiment is T11, VEGFR2(M2) (human, UniProt P35968 20-813).
T11 construct: Expressed on 293T cells; single substitutions derived from the printed replacement of the seven-residue stretch
T11 chain: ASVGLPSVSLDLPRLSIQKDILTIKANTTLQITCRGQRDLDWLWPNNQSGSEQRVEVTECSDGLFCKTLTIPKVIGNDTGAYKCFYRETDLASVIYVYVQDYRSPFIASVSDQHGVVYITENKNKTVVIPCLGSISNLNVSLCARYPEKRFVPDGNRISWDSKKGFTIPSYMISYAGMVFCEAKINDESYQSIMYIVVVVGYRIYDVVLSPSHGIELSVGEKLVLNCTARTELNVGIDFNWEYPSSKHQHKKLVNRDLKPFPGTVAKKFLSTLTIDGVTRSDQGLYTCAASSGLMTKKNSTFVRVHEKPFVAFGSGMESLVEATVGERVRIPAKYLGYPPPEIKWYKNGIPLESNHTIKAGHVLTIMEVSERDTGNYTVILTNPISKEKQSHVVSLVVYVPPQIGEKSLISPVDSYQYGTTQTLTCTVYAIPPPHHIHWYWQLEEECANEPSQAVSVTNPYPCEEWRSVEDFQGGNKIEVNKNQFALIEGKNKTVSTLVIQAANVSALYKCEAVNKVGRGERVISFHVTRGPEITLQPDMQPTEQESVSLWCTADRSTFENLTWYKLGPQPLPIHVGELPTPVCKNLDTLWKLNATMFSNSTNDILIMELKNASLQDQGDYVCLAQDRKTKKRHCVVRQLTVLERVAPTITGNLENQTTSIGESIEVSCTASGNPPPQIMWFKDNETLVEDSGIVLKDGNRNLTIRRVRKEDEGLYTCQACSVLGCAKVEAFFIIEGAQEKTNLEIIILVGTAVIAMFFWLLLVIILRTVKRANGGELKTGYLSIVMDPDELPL
The experiment is described as above.

The text below walks through data of patent US20180127504A1 (ACADEMIA SINICA, published 2018).

T3 sequence (P35968 20-764 limits assumed): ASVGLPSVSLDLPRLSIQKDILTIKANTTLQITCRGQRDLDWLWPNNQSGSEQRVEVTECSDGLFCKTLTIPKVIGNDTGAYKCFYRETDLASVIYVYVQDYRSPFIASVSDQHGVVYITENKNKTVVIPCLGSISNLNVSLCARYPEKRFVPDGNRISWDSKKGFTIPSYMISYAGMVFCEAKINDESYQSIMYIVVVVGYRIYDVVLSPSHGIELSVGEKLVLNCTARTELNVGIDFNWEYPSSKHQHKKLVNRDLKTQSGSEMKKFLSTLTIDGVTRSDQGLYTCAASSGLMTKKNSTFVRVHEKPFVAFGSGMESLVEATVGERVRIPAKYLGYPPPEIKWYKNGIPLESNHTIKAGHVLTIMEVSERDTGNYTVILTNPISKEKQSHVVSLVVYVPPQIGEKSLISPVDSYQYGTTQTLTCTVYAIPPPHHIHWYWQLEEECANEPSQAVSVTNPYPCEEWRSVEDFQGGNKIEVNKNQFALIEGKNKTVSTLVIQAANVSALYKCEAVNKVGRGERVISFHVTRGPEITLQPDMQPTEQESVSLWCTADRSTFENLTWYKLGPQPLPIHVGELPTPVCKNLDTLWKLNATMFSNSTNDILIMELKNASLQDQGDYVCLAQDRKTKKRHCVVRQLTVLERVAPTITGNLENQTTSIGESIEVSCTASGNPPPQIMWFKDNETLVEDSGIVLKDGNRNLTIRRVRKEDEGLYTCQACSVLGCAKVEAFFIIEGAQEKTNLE
T2 sequence (P35968 20-1356 limits assumed): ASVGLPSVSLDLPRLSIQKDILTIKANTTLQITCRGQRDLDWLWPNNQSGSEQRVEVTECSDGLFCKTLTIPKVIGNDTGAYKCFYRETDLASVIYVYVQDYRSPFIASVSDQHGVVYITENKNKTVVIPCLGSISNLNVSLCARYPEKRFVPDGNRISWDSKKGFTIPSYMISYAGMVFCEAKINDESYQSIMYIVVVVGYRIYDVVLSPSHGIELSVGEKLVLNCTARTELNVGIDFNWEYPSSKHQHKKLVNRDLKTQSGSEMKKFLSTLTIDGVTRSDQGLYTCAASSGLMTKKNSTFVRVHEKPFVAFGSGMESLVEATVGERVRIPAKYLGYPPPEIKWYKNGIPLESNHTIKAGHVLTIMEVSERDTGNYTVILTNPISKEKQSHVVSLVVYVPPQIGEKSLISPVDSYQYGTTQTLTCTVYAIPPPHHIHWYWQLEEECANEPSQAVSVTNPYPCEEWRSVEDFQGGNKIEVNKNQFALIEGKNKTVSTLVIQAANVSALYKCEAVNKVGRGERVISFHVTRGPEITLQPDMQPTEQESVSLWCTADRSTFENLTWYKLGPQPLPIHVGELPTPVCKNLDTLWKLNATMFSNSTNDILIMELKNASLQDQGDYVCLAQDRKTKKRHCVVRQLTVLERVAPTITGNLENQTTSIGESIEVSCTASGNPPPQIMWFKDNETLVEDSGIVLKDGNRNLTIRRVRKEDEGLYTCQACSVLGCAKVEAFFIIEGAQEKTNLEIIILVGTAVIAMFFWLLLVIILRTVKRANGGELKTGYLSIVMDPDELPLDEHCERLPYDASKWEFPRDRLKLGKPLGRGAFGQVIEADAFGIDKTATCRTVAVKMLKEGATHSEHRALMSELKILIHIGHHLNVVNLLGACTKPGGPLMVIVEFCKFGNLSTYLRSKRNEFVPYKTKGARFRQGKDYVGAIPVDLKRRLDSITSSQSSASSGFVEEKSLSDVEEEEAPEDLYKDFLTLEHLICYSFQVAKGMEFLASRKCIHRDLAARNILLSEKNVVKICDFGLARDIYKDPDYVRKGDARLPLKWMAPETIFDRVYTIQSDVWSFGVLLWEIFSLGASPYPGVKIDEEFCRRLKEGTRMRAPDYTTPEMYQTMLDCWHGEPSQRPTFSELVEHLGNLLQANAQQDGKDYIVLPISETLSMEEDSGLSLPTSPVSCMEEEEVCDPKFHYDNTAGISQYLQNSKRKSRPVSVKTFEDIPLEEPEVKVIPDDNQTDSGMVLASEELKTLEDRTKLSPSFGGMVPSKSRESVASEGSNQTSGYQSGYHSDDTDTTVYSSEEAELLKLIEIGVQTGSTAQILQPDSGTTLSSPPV
T1 sequence (P08581 25-932 limits assumed): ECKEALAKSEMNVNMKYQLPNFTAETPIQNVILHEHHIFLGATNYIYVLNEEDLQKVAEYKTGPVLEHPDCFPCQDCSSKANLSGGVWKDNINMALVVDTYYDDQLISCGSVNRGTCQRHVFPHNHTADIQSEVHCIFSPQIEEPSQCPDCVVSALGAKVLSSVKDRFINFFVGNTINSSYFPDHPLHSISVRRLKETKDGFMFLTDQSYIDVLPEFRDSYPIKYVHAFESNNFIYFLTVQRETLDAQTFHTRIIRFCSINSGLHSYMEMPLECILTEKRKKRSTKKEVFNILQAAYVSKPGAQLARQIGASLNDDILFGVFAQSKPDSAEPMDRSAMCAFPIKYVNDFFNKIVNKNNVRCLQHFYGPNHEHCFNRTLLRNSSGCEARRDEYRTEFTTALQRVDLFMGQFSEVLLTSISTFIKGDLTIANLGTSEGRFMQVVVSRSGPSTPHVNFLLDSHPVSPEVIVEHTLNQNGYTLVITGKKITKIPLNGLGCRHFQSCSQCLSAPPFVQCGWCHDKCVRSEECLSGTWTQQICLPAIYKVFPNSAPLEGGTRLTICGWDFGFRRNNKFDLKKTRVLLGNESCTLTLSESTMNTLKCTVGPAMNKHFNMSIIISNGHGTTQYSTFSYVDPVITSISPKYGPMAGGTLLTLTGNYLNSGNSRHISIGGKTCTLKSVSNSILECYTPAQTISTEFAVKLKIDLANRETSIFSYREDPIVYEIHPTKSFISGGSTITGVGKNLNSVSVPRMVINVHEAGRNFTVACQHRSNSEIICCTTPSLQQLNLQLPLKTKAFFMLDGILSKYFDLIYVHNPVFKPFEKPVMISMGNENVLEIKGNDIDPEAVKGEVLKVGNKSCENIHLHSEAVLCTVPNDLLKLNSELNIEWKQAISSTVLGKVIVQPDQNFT

B1: R2PC45 (scFv, V domains shown)
VH: QVNLRESGGGVVQPGRSLRLSCAASGFTFSSYAMHWVRQAPGKGLEWVAVISYDGSNKYYADSVKGRFTISRDNSKNTLYLQMNSLRAEDTAVYYCAREQDYGSSSGDAFDIWGQGTMVTVSS
VL: DIQMTQSPSSLSASVGDRVTITCRASQRISSYLNWYQQKPGKAPKLLIYDASNLQSGVPSRFSGSGSGTDFTLTINGLQPDDFAIYFCHQSYSAPPTFGQGTKVEIK
notes: also called anti-VEGFR2 scFv phage clone 45
In the case of B1, the binding result in the experiment with c-Met-Fc control protein was “no binding (tested: 1x10^9 cfu)”; in experiment [1], “binds”; in [2], “binds”.

B2: anti-VEGFR2-AF fully human antibody (hAb) (antibody, human IgG1)
heavy: not shown
light: DIQMTQSPSSLSASVGDRVTITCKASDDIINYLNWYQQKPGEAPKLLIYDASILETGVPSRFSGSGSGTDFTFTISSLQPEDIATYYCQQLDDIPITFGGGTKLEIK
notes: also called anti-VEGFR2-AF hAb; R2S12-AF in human IgG1 backbone; not shown: kappa constant region of vector p-Kappa-HuGs
With B2, the 50% inhibitory concentration (IC50) in experiment [3] came to 0.88 nM. Further, in [4], the equilibrium dissociation constant (Kd) was 0.264 nM. In experiment [5], the koff is 0.000442 s⁻¹ and the kon stood at 1.67e+06 M⁻¹ s⁻¹.

B3: anti-VEGFR2 fully human antibody (hAb) (antibody)
heavy: not shown
light: DIQMTQSPSSLSASVGDRVTITCKASDDIINYLNWYQQKPGEAPKLLIYDASILETGVPSRFSGSGSGTDFTFTISSLQPEDIATYYCQQYDILPLTFGGGTKLEIK
notes: also called anti-VEGFR2 hAb; R2S12 in human IgG1 backbone; not shown: kappa constant region of vector p-Kappa-HuGs
Consider B3, for which, in experiment [3], the IC50 amounted to 1.87 nM. In addition, the dissociation constant Kd in experiment [4] was 2.1 nM. For the same molecule, in experiment [5], the dissociation rate constant (koff) amounted to 0.000472 s⁻¹ and the on-rate constant (kon) came out at 225000 M⁻¹ s⁻¹.

B4: R2S28 (scFv, V domains shown)
VH: EVQLVESGGALVQPGGSLRLSCVGSEFTFSHYNLHWVRQAPGKGLEWLAVISDDGRNKYYGDSVKGRFTISRDNSKNTLYLQMNGLRAEDTAVYYCARVPTVWRGGVYDIWGQGTMVTVSS
VL: EIVLTQSPATLSLSPGERATLSCRASQSVGSYLAWYQQRPGQPPRLLIYDASNRATGVAARFSGSGSGTDFTLTIDSLEAEDAATYYCHQSSSLPRTFGQGTKLEIK
notes: also called soluble anti-VEGFR2 scFv from phage clone R2PC28
Take B4: the binding result is reported as “binds” in [6]; “no binding” in the experiment with VEGFR2(4-7); “binds” with VEGFR2(M1); “no binding” in the experiment with VEGFR2(2-7); “binds” with VEGFR2(del2-3); “binds” in the experiment with VEGFR2(del3). In addition, the binding result in the experiment with VEGFR2(1-7) and in the experiment with VEGFR2(M2) was “binds” each time.
